The assay has as its target T1, Recombinant PPIA protein (PPIA WT) (human, UniProt P62937 1-165, 15N-labeled in the NMR experiment).
T1 construct: peptidylprolyl isomerase A (PPIA, CypA), called full-length PPIA for the co-crystal; free in solution for crystal and NMR; also called full-length PPIA; 15N-labeled PPIA; source: E. coli BL21 (DE3), purified (Ni-NTA; for crystallization also Superdex 75 gel filtration)
Briefly: crystal structure; PPIA (50 mg/mL) incubated with PBM peptide (2 mM) at 4 °C for 2 h; hanging-drop co-crystallization, 25 mM Hepes, 25% PEG 3350, 5 mM TCEP, pH 7.5; 1.81 Å. The settings on record: both partners purified.

T1 sequence (P62937 whole entry): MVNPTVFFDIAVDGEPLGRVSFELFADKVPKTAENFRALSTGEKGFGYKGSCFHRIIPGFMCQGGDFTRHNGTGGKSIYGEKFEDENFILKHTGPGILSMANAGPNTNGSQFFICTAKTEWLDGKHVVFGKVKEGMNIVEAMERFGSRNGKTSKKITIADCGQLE

B1: NRF2 fragment PPIA-Binding Motif (PBM) peptide (peptide)
peptide: VAQVAPVD
notes: NRF2 residues 169-176, in the linker between the Neh4 and Neh5 domains; also called NRF2-PBM; source: synthetic peptide
On to B1, for which the binding result was “binds”.
